Laboratory results: US20160200813A1 (AbbVie / Abbott, published 2016)
Positions count from the first letter of the chain named. *1 amine or outer side, *2 acyl side, *3 side chain or, on linkers, in order; H or OH if unused. Bridges are numbered along the chain shown (N, C = ends). Where no end group is shown, it is not given here. Lys(Aoa) = NOCC(=O)NCCCC[C@H](N[*:1])C(=O)[*:2]

Legend:
[1] = biological target: T1, Cynomolgus monkey LRP-8 expressed on HEK293 cells (cynomolgus monkey); test: cell-based binding on CYNO LRP8-HEK293, supernatant 1:5
T1 construct: whole, on cells; also called cyno LRP-8; cLRP-8

[2] = biological target: T1, Cynomolgus monkey LRP-8 expressed on …; test: cell-based MSD, 1 to 5, cyno-LRP8-HEK293
[3] = biological target: T1, Cynomolgus monkey LRP-8 expressed on …; test: cell-based MSD, 1 to 25, cyno-LRP8-HEK293
[4] = biological target: T1, Cynomolgus monkey LRP-8 expressed on …; test: cell-based MSD, 1 to 125, cyno-LRP8-HEK293
[5] = biological target: T1, Cynomolgus monkey LRP-8 expressed on …; test: cell-based binding on CYNO LRP8-HEK293, supernatant 1:25
[6] = biological target: T2, Human LRP-8 (isoform 3) expressed on cells (human, UniProt Q14114 33-963); test: cell-based MSD, 1 to 5, human_LRP8_HEK293
T2 construct: also called hLRP-8; huLRP-8

[7] = biological target: T2, Human LRP-8 (isoform 3) expressed on …; test: cell-based MSD, 1 to 25, human_LRP8_HEK293
[8] = biological target: T2, Human LRP-8 (isoform 3) expressed on …; test: cell-based MSD, 1 to 125, human_LRP8_HEK293
[9] = biological target: T1, Cynomolgus monkey LRP-8 expressed on …; test: cell-based binding on CYNO LRP8-HEK293, supernatant 1:125
[10] = biological target: T2, Human LRP-8 (isoform 3) expressed on …; test: cell-based or functional assay
[11] = biological target: T2, Human LRP-8 (isoform 3) expressed on …; test: cell-based ECL-MSD, 10 ug/ml Ab, human_LRP-8_HEK293
Protocol: (§1) A cell-based ECL-MSD binding assay was used to determine antibody affinity. HEK293 cells overexpressing human, monkey or mouse LRP-8 were added onto MSD 96-well plate (MSD Cat# L15XB-3/L11XB-3) and incubated at 37° C. for one hour. Cells were blocked using 15% FBS (Hyclone, Thermo Scientific Cat# SH300700.03) at RT for 30 minutes with mild agitation. Plates were washed with DPBS three times and Abs or DVD-Ig binding proteins were added to the well. After incubation at RT for one hour, plates were washed with DPBS and goat anti-human or anti-mouse Sulfo TAG (MSD Cat#R32AJ-1) was added. Plates were incubated at RT for one hour, washed with DPBS and immersed in MSD read buffer (MSD Cat#R92TD-2) before reading on a MSD SECTOR Imager 6000. EC50 values were obtained using Xlfit4 software system.

[12] = biological target: T2, Human LRP-8 (isoform 3) expressed on …; test: cell-based or functional assay; remark: listed apart in the source
[13] = biological target: T2, Human LRP-8 (isoform 3) expressed on …; test: huLRP-8 cell-based binding
[14] = biological target: T1, Cynomolgus monkey LRP-8 expressed on …; test: cell-based ECL-MSD, 10 ug/ml Ab, cyno-LRP-8-HEK293
Protocol: as §1

[15] = biological target: T1, Cynomolgus monkey LRP-8 expressed on …; test: FACS, cyno LRP8 cells
[16] = biological target: T3, CR1 cyclic peptide of human LRP-8 (human, disulfide 1-13); test: ELISA using CR1 peptide
T3 construct: also called CR1 peptide; conjugated human LRP-8 CR1 peptide
T3 peptide: CEKDQFQSRNERCIPSVWR-{Lys(Aoa)-NH2}

T2 sequence (Q14114 other isoform, or with tags, fused parts or gaps limits assumed): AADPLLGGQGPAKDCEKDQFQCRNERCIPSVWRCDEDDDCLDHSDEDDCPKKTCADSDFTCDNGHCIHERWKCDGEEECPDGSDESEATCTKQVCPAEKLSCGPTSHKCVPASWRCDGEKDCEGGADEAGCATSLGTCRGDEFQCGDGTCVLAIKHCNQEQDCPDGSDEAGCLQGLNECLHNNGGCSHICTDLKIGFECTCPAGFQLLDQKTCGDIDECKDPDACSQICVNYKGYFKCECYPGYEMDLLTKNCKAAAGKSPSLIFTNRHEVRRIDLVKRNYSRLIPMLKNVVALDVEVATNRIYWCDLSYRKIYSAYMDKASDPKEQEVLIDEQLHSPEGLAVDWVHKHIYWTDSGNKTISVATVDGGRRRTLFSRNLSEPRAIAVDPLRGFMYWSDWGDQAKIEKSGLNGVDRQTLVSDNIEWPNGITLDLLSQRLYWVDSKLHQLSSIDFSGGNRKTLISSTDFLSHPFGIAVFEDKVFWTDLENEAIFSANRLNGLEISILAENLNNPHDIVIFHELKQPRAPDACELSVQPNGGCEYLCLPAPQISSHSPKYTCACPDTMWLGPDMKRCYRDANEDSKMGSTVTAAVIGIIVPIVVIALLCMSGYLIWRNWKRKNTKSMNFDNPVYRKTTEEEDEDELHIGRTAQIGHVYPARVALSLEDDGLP

B1: BGK-7F7 (GENOVAC candidate clone of Table 17) (antibody, V domains shown)
VH: QVTLKESGPGILQPSQTLSLTCTFSGFSLSTYGLGVGWIRQPSGKGLEWLANIWWDDAKYYNPSLKNRLTISKDTSNNQAFLKIPNVDTADTARYYCARTTKPYYFDYWGQGVMVTVSS
VL: HFVLAQPNSVSTNLGSTVKLSCKRSTANIGSNYVNWYQQHEGRSPTTLIYRDDRRPDGVPDRFSGSIDRSSNSALLTINNVQTEDEADYFCQSYSSGINIFGGGTKLTVL
notes: here the candidate from rat immunization before chimerization, tested at dilutions
fold over isotype control [1]: 3.23 fold | fold over IgG control [2]: 2 fold | fold over IgG control [3]: 1.9 fold | fold over IgG control [4]: 1.8 fold | fold over isotype control [5]: 1.86 fold | fold over IgG control [6]: 5 fold | fold over IgG control [7]: 5.2 fold | fold over IgG control [8]: 5 fold | fold over isotype control [9]: 1.5 fold | Endocytosis, fold over-IgG [10]: 5.18 fold | Transcytosis, fold over-IgG [10]: 2.17 fold

B2: anti-LRP-8 ML199-11H1.5B2 murine antibody (muFc) (antibody, V domains shown)
VH: EVQLVESGGDLVKPGGSLKLSCAASRFTFSNYGMSWVRQTPDKRLEWVATISSGGRYTYYPDSVKGRFTISRDNAKNTLYLQMSSLRSEDTAMYYCARDYLYAMDYWGQGTSVTVSS
VL: DVVMTQTPLSLPVSLGDQASISCRSSQSLVYSNGNTYLHWYLQKPGQSPKVLMYKVSNRFSGVSDRFSGSGSGTDFTLKISRVEAEDLGVYFCSQSTHVPLTFGAGTKLELK
notes: Mouse Fc form (muFc); also called ML199-11H1-5B2 muFc; anti-LRP-8,11H1.5B2
fold over mIgG control [11]: 15.1 fold | Endocytosis, fold over IgG control [12]: 1.7 fold | Transcytosis, fold over IgG control [12]: 2 fold | EC50 [13]: 0.4 nM | fold over mIgG control [14]: 7 fold

B3: anti-LRP-8 antibody CL-135325 (antibody, V domains shown)
VH: EVQLVQSGGGLVQPGGSLRLSCAASGFTFSIYAMSWVRQAPGKGLEWVSVISCSAGSTYYADSVKGRFTISRDNSKNTLYLQMNSLRAEDTAVYYCARHSVHEEFPFDVWGQGTLVTVSS
VL: DIQMTQSPSSLSASVGDRVTITCRASQSIGSYLNWYQQKPGKAPKLLIYAASSLQSGVPSRFSGSGSGTDFTLTISSLQPEDFATYYCQQSYIPPLTFGGGTKVEIK
FACS (ratio +/-) [15]: 16.5 ratio | OD450 [16]: 0.17 OD450

B4: anti-LRP-8 antibody CL-135359 (antibody, V domains shown)
VH: EVQLVQSGGGLVQPGGSLRLSCAASGFTFSSYAMSWVRQAPGKGLEWVSVISCSGGTTYYADSVKGRFTISRDNSKNTLYLQMNSLRAEDTAVYYCARNGGQFDLWGQGTLVTVSS
VL: B3 VL with S28G, G30C, S31T, I93N
FACS (ratio +/-) [15]: 12.6 ratio | OD450 [16]: 0.1 OD450
